The source of these data is patent US20130245102, “NOVEL DNA TEMPLATES FOR SMALL RNA PRODUCTION IN MAMMALIAN CELLS” (Research Foundation of the City University of New York, published 2013).

Data set [1] has as its system RNA polymerase III (Homo sapiens). Conditions: 90 min IVT from 100 nM coligo; 6 mM MgCl2; abolished by 120 ug/ml alpha-amanitin.
The subject of data set [2] is TS2126 RNA ligase 1 (Bacteriophage TS2126). Conditions: 5' phosphate; splintless circularization, 2.5 mM MnCl2, 50 uM ATP, 60 C, 2 h.
Data set [3] concerns RNA polymerase III (Homo sapiens). To be noted: HEK293T WCE transcription; mainly single round.
Data set [4] concerns the target RNA polymerase II (UniProt P04050;P08518;P16370;P20433;P20434;P20435;P34087;P20436;P27999;P22139;P38902;P40 …). Description: in vitro transcription processivity, 1 uM template, 37 C. To be noted: tags: yeast RNAP II from D. Bushnell and R. Kornberg; circular, stem-loop. An excerpt:
(§1) Chem. Soc. 117, 7818-7819 (1995)) (FIG. 5b, gel region “a”). As a relative measure of transcriptional processivity, we calculated the ratio of the radioactivity incorporated in the rolling circle transcripts (FIG. 5b, gel region “a” in lanes 3, 6, 9) to the sum of all shorter transcripts (gel region “b”). Lower a/b ratios indicate lower processivity. […] Thus, the ability to initiate promoterless transcription on coligo templates appears to have been retained during RNAP evolution, while the processivity needed for RCT appears to have been lost.
(§2) In vitro transcription (IVT). IVT using WCE, uniform labeling with [α-³²P]-UTP and the linear or circular (coligo) templates was performed as follows. A typical 20 μl reaction contained 25 μg total WCE protein, 20 units RNase inhibitor (Promega) 1.25 mM each ATP, CTP, GTP, 0.2 mM UTP, (except FIG. 5b, which contained 1.25 mM each NTP), ˜2 μCi [α-³²P]-UTP, 40 mM Tris-HCl pH 7.9, 6 mM MgCl₂, 10 mM DTT, 2 mM spermidine, 100 μM NaCl); 100 nM template unless otherwise indicated. IVT using E. coli RNA polymerase (USB) was carried out in 40 mM Tris-HCl, pH 8.0, 10 mM MgCl₂, 5 mM DTT, 50 mM KCl, 50 μg/ml BSA), 1 μM coligo template, 1.25 mM NTP, ˜2 μCi [α-³²P]-UTP, 1 unit/μl RNAse inhibitor. […] Images and quantitation were performed using MD ImageQuant software. […]

Data set [5] has as its target RNA polymerase (Escherichia coli, UniProt P0A7Z4;P0A8V2;P0A8T7;P0A800 P0A7Z4:1-329,P0A8V2:1-1342,P0A8T7:1-1407,P0A800:2-91). Description: in vitro transcription processivity, 10 mM MgCl2, 37 C. Conditions: tags: USB; chain copies: 2,1,1,1; circular, stem-loop.
Description: as §1, §2

Chain of RNA polymerase (P0A7Z4 whole entry, chain 1 of 4): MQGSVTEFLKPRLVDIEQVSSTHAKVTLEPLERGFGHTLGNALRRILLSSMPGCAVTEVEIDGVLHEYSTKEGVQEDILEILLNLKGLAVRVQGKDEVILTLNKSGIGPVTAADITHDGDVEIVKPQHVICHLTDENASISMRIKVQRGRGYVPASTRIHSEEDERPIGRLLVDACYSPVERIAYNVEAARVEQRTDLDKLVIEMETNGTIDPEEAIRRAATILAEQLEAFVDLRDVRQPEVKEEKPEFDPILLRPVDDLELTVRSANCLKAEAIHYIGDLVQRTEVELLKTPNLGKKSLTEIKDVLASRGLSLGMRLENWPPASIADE
Chain of RNA polymerase (P0A8V2 whole entry, chain 2 of 4): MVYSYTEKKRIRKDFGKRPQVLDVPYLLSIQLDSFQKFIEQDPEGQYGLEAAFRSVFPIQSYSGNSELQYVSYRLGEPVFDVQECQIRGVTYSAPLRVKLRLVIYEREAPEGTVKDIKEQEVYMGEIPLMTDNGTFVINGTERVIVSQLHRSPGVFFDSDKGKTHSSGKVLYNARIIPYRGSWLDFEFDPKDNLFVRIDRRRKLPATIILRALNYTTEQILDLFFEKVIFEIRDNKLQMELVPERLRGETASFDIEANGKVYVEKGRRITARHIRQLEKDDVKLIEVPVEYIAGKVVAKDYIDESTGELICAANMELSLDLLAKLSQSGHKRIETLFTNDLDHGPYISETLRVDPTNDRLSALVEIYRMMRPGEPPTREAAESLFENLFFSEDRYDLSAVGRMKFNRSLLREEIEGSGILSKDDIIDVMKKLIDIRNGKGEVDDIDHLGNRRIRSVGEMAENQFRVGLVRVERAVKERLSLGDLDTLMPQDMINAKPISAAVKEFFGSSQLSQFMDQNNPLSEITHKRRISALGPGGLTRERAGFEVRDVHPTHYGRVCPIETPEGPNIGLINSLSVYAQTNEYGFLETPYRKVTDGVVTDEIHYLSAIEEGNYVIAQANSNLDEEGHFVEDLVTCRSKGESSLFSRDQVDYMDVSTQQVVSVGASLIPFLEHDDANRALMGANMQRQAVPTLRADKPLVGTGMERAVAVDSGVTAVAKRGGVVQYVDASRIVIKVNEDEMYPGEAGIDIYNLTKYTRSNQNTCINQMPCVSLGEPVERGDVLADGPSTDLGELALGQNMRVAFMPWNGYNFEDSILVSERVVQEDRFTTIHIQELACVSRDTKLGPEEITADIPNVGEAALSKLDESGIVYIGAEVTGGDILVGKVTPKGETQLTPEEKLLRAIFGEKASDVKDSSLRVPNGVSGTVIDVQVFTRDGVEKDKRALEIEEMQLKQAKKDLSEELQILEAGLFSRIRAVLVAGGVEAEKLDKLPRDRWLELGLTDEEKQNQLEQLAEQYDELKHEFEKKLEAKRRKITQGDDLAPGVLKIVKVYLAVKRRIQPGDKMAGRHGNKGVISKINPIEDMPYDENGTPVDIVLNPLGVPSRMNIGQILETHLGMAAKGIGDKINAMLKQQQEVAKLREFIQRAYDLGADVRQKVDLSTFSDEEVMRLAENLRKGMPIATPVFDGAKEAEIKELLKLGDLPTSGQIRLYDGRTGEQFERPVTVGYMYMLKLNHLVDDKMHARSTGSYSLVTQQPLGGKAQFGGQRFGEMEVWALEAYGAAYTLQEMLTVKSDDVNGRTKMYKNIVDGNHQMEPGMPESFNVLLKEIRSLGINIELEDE
Chain of RNA polymerase (P0A8T7 whole entry, chain 3 of 4): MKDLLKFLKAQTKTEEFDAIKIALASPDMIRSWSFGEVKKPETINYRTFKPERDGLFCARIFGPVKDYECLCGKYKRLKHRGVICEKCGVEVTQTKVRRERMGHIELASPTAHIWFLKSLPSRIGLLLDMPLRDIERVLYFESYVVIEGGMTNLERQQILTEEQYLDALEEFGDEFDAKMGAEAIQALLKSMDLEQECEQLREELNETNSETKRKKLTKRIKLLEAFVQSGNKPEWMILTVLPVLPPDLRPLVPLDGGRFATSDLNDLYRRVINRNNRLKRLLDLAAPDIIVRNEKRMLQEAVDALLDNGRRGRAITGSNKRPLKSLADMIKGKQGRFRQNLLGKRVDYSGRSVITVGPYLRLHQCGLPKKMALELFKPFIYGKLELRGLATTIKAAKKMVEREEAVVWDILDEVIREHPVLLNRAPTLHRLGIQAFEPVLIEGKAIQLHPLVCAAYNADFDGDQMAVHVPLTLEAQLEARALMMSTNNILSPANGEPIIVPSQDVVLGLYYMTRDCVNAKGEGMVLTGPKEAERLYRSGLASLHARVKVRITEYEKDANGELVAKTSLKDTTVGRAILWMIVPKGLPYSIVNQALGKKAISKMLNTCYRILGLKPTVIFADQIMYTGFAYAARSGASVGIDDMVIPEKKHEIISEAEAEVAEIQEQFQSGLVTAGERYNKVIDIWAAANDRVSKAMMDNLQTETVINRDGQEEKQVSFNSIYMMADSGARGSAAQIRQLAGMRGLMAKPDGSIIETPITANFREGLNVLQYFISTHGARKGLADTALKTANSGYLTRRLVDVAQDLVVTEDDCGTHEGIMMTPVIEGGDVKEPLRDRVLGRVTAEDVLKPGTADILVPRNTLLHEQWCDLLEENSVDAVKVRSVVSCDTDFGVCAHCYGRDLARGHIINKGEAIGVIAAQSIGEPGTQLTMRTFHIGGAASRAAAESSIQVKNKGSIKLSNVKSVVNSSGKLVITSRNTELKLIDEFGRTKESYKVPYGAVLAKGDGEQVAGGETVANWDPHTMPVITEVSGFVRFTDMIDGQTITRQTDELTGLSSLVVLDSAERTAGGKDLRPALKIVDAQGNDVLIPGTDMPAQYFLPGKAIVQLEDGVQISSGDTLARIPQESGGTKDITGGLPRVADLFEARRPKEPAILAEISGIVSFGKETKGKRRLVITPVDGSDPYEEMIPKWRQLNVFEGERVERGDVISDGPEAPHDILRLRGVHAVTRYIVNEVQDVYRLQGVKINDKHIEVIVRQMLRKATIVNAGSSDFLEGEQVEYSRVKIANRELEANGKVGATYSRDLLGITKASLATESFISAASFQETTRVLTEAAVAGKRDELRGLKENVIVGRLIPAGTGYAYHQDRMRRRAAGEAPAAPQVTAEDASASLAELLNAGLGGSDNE
Chain of RNA polymerase (P0A800 2-91, chain 4 of 4): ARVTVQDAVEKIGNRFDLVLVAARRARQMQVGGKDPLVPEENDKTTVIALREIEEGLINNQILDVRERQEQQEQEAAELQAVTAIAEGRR

“CTCAGATCTGCCTGCAACTATGCAAAACTAACAGAGGACTGCAAACAAAAACTAGAAGGAAATAGCAGGCCACCATCAGTTTTGCATAGATTTGCACAACGGCAGAGAGCTCCCAGG [coligo 19aTAR (19am)]” gave an activity (nM transcript) in data set [1] of 0.6. For “CTCAGATCTGCCTGCAACTATGCAAAACTAACAGAGGACTGCAAACAAAAACTAGAAGGAAATAGCAGGCCACCATCAGTTTTGCATAGATTTGCACAACGGCAGAGAGCTCCCAGG [linear 19aTAR]”, the activity (% cyclization) in data set [2] was determined as 73.

As to “TTGCCTAGCAGTAGCTATTTAGTGTGATAATGGCGTTTGATAGTTTAGACACAAACACCATTGTCACACTCCACAGCTCTGCTAAGGAA [coligo 122]”, the binding signal (RCT/short transcript ratio) in data set [3] was 0.01.

B1: coligo 122 (structured_DNA)
DNA: TTGCCTAGCAGTAGCTATTTAGTGTGATAATGGCGTTTGATAGTTTAGACACAAACACCATTGTCACACTCCACAGCTCTGCTAAGGAA
On to B1, for which the “transcriptional processivity (rolling-circle/short transcript ratio)” value in data set [4] was 0.3 RCT/short transcript ratio. The binding signal in data set [5] is 2.3 RCT/short transcript ratio.
